From patent EP4722254A1

Target: Recombinant Human-FGFR2-His protein (human) (UniProt P21802)
Test: ELISA, Human-FGFR2-His coated, anti-human Fc-HRP detection

Recombinant Human-FGFR2-His protein (human), sequence (P21802 other isoform, or with tags, fused parts or gaps limits assumed): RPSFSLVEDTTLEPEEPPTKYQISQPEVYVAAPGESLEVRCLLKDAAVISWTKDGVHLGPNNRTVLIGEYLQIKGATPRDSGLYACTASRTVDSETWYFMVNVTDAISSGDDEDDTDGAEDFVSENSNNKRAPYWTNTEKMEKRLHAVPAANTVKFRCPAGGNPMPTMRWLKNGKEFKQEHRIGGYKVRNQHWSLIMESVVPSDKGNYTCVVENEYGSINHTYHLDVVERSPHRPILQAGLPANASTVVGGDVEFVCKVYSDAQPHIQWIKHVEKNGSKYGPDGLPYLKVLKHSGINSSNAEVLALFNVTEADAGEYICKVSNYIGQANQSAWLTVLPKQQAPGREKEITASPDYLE

B1: anti-FGFR2/PD-1 bispecific antibody c (bispecific antibody, part only; not given: anti-PD-1 constant regions, part only)
heavy, part: EVKLVESGGGLVQPGGSLRLSCAASGFAFSSYDMSWVRQAPGKRLEWVATISGGGRYTYYPDTVKGRFTISRDNAKNSHYLQMNSLRAEDTAVYFCASPYGGYFDVWGQGTLVTVSSGGGGSGGGGSGGGGSQVQLVQSGAEVKKPGSSVKVSCKASGYTFTSYWMHWVRQAPGQGLEWMGAIYPGNSDTDYSGKFKGRVTITADESTSTAYMELSSLRSEDTAVYYCSKFDYWGQGTLVTVSSGGGGSGGGGSGGGGSGGGGSEIVLTQSPATLSLSPGERATLSCRASSSVNYMYWYQQKPGQAPRPWIYLTSNRATGVPARFSGSGSGTDYTLTISSLEPEDFAVYYCQQWSSNPYTFGQGTKLEIKRTV
light, part: EIVLTQSPATLSLSPGERATLSCRASQSISNFLHWYQQKPGQAPRLLIKYASQSISGIPARFSGSGSGTDFTLTISSLEPEDFAVYFCQQSNSWPHTFGQGTKVEIK
EC50: 0.624 nM
